# According to patent publication US9745556B2, “Variants of glycerol dehydrogenase having D-lactate dehydrogenase activity and uses thereof” (UNIVERSITY OF FLORIDA RESEARCH FOUNDATION, INC., priority 2011, dated 2017):
# Positions count from the first letter of the chain named. Names and notes keep the numbering of the source.
# B1: Bacillus coagulans glycerol dehydrogenase (GlyDH/GDH, native SEQ ID NO: 3) variant F245S, D121N (GlyDH*, strain QZ19, SEQ ID NO: 1) (Heyndrickxia coagulans; … (protein)
# chain: MTKIITSPSKFIQGPDELSRLSAYTERLGKKAFIIADDFVTGLVGKTVEESYAGKETGYQMALFGGECSKPEIERLCEMSKSEEADVVVGIGGGKTLDTAKAVGYYNNIPVIVAPTIASTNAPTSALSVIYKENGEFEEYLMLPLNPTFVIMDTKVIASAPARLLVSGMGDALATYFEARATKRANKTTMAGGRVTEAAIALAKLCYDTQILEGLKAKLAAEKHLVTEAVEKIIEANTYLSGIGSESGGLAAAHAIHNGLTVLEETHHMYHGEKVAFGTLAQLILEDAPKAEIEEVVSFCLSVGLPVTLGDLGVKELNEEKLRKVAELSCAEGETIYNMPFEVTPDLVYAAIVTADSVGRYYKEKWA
# B2: Bacillus coagulans glycerol dehydrogenase (GlyDH/GDH), native, strain P4-102B, SEQ ID NO: 3 (Heyndrickxia coagulans) (protein)
# chain: B1 chain with N121D, S245F
# Tests used:
# [1] = biological target: Bacillus coagulans glycerol dehydrogenase (GlyDH/GDH), native, strain P4-102B, SEQ ID NO: 3 (Heyndrickxia coagulans, UniProt A0AAN0T381); format: biochemical; conditions: native enzyme
# Protocol: (§1) Cultures were grown (LB-glucose medium in pH-controlled fermenters) to mid-exponential phase, harvested, and used for enzyme assays as previously described (23). Glycerol dehydrogenase from strain QZ19 was purified using differential ammonium sulfate precipitation followed by anion-exchange and hydrophobic interaction chromatography. GlyDH and GlyDH* were also purified as N-terminal His-tagged enzymes (33). GlyDH and LDH were assayed using standard methods (34, 35).
# (§2) During the development of a D-lactate producing B. coagulans derivative (strain QZ19), a glycerol dehydrogenase (GDH) with two mutations (D121N and F245S) evolved to catalyze the reduction of pyruvate to D-lactate (Table 1 and FIG. 7). The first derivative that produced a significant D-lactate titer, strain QZ15, carried a single mutation that changed the amino acid phenylalanine at position 245 to serine. As strain QZ15 was further selected for higher lactate productivity, the GDH protein acquired a second mutation in amino acid position 121 (D121N) (FIG. 15). […] In order to evaluate the role of each of these two mutations in the catalysis of pyruvate reduction to D-lactate, GDH/LDH enzyme with either of the two substitutions (D121N or F245S) and the protein with both changes were expressed in E. coli, purified, and their biochemical properties were determined.
# [2] = biological target: T1, Bacillus coagulans glycerol dehydrogenase (GlyDH/GDH, native SEQ ID NO: 3) variant D121N (Heyndrickxia coagulans, UniProt A0AAN0T381, D121N); assay: Kinetic properties of mutated glycerol dehydrogenase D121N; format: biochemical; conditions: D121N alone; compared to native enzyme; in words
# T1 sequence (A0AAN0T381 1-367 D121N): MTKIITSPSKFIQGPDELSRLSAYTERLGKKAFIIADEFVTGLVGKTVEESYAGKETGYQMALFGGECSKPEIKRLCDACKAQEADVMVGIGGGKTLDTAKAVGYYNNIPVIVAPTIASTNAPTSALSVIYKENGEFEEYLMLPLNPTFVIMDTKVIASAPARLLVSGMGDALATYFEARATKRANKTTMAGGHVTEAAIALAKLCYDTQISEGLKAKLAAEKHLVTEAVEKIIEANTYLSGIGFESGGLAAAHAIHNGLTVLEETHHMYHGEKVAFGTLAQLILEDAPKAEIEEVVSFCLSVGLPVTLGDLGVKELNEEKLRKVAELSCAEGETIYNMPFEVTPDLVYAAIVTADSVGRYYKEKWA
# Protocol: as §1
# (§3) During the development of a D-lactate producing B. coagulans derivative (strain QZ19), a glycerol dehydrogenase (GDH) with two mutations (D121N and F245S) evolved to catalyze the reduction of pyruvate to D-lactate (Table 1 and FIG. 7). The first derivative that produced a significant D-lactate titer, strain QZ15, carried a single mutation that changed the amino acid phenylalanine at position 245 to serine. As strain QZ15 was further selected for higher lactate productivity, the GDH protein acquired a second mutation in amino acid position 121 (D121N) (FIG. 15). Combination of these two mutations led strain QZ19 to produce D-lactic acid at a titer close to 100 g/L in 48 hours at pH 5.0 and 50° C. in pH-controlled fermentations. In order to evaluate the role of each of these two mutations in the catalysis of pyruvate reduction to D-lactate, GDH/LDH enzyme with either of the two substitutions (D121N or F245S) and the protein with both changes were expressed in E. coli, purified, and their biochemical properties were determined.
# OCC(O)CO [3] = assay: as above; format: biochemical, Bacillus coagulans; conditions: other: D121N, 55° C., pH 5.0
# Protocol: as §1, §3
# C[C@@H](O)C(=O)O = assay: as above; format: biochemical, Bacillus coagulans; conditions: other: D121N, 55° C., pH 5.0
# Protocol: as §1, §3
# CC(=O)C(=O)O [4] = assay: as above; format: biochemical, Bacillus coagulans; conditions: other: D121N, 55° C., pH 5.0
# Protocol: as §1, §3
# OCC(O)CO [5] = assay: Kinetic properties of mutated glycerol dehydrogenase F245S; format: biochemical, Bacillus coagulans; conditions: other: F245S, 55° C., glycerol oxidation, pyruvate reduction or lactate oxidation, pH 5.0
# Protocol: as §1, §3
# CC(=O)C(=O)O [6] = assay: as above; format: biochemical, Bacillus coagulans; conditions: other: F245S, 55° C., pH 5.0
# Protocol: as §1, §3
# [7] = substrate: CC(=O)C(=O)O; assay: purified protein, by the assay type; conditions: other: enzyme with both changes; pH 5.0; 50.0 °C
# [8] = substrate: OCC(O)CO; assay: purified protein, by the assay type; conditions: other: column head, D121N; 55° C.; pH 5.0; 55.0 °C
# [9] = substrate: OCC(O)CO; assay: purified protein, by the assay type; format: biochemical, Bacillus coagulans; conditions: other: Native, 55° C., glycerol oxidation, pyruvate reduction or lactate oxidation, pH 5.0
# Protocol: as §1, §2
# [10] = substrate: NC(=O)C1=CN([C@@H]2O[C@H](COP(=O)(O)OP(=O)(O)OC[C@H]3O[C@@H](n4cnc5c(N)ncnc54)[C@H](O)[C@@H]3O)[C@@H](O)[C@H]2O)C=CC1; assay: purified protein, by the assay type; conditions: other: Native, 55° C., glycerol oxidation, pyruvate reduction or lactate oxidation, pH 5.0
# Sequence of Bacillus coagulans glycerol dehydrogenase (GlyDH/GDH), native, strain P4-102B, SEQ ID NO: 3 (A0AAN0T381 entry or part of it): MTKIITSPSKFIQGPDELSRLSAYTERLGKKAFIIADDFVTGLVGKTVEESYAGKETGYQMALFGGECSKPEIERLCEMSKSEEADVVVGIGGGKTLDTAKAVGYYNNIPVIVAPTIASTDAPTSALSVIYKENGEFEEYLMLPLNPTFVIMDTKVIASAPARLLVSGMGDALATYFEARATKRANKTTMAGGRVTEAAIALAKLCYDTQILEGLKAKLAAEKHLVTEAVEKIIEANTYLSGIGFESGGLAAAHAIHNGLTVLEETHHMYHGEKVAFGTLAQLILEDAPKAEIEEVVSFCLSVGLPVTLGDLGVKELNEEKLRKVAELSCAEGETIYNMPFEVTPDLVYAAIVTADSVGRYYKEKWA
molecule,measurement,setting,value
OCC(O)CO [Glycerol],efficiency at oxidizing glycerol with NAD^+ relative to reducing pyruvate using NADH,[1],"about 1,000 times"
same,change in apparent Km for glycerol,[2],slight increase
"Bacillus coagulans glycerol dehydrogenase (GlyDH/GDH, native SEQ ID NO: 3) variant D121N (Heyndrickxia coagulans; D121N)",kcat,OCC(O)CO [3],13.2 s⁻¹
same,kcat/Km,OCC(O)CO [3],0.1 s⁻¹ mM⁻¹
same,kcat,C[C@@H](O)C(=O)O,1.9 s⁻¹
same,kcat/Km,C[C@@H](O)C(=O)O,0.008 s⁻¹ mM⁻¹
same,kcat,CC(=O)C(=O)O [4],2.0 s⁻¹
same,kcat/Km,CC(=O)C(=O)O [4],0.003 s⁻¹ mM⁻¹
"Bacillus coagulans glycerol dehydrogenase (GlyDH/GDH, native SEQ ID NO: 3) variant F245S (Heyndrickxia coagulans; F245S)",kcat,OCC(O)CO [5],62.5 s⁻¹
same,kcat/Km,OCC(O)CO [5],0.8 s⁻¹ mM⁻¹
same,kcat,CC(=O)C(=O)O [6],19.5 s⁻¹
same,kcat/Km,CC(=O)C(=O)O [6],0.08 s⁻¹ mM⁻¹
B1,Km,[7],51 mM
same,kcat,[8],16.7 s⁻¹
same,kcat/Km,[8],0.1 s⁻¹ mM⁻¹
B2,kcat,[9],28.0 s⁻¹
same,kcat/Km,[9],2.4 s⁻¹ mM⁻¹
same,Km,[10],400 µM
